B1: VH:VL chains; a variant is named by its letters at X, in order (parent)
chain 1: QVQLVQSGAEVKKPGASVKVSCKASGYTFTDYXMHWVRQAPGQGLEWMGXVNPNXXXTTYNQKFEGRVTMTTDTSTSTAYMELRSLRSDDTAVYYCARXNXLDXWGQGTTVTVSS
chain 2: DIQMTQSPSSLSASVGDRVTITCSVSSSVSSIYLHWYQQKPGKAPKLLIYSTSNLASGVPSRFSGSGSGTDFTLTISSLQPEDFATYYCQVYSGYPLTFGGGTKVEIK

Variants of: B1
Experiment: yeast display scFab, FACS + sequencing
In short: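 The non-specific binding call was based on sorted and sequenced yeast displaying a heavy-chain CDR mutant scFab library. Labelling used anti-Myc with biotinylated ovalbumin (260 μg/mL in PBSB, 3 h, room temperature) or soluble membrane proteins (130 μg/mL, 20 min on ice), and FACS collected the top 25% and bottom 10% of binders in two replicates. Positive meant present in ≥3 of 4 pooled positive samples and in no negatives, and negative meant the converse.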

Row | Variant | non-specific binding call
1 | SEEEGAGD | no binding
2 | VEEEGAGD | no binding
3 | VEEEGAGV | no binding
4 | DEAKAAVD | binds
5 | SEARSSSY | no binding
6 | SEARSSSA | no binding
7 | SEARSSSV | no binding
8 | SEARSSSD | no binding
9 | SEARSSSF | no binding
10 | VEGGGAGV | no binding
11 | DEEEGSAA | no binding
12 | SATTDSVD | no binding
13 | VEAGDSSA | no binding
14 | VEAGDSSS | no binding
15 | SEAGDAVV | no binding
16 | VEGAADVD | no binding
17 | VEGGGSSV | no binding
18 | VEGGGSSS | no binding
19 | VEGGGSSA | no binding
20 | VEGADAVA chain 1 G106S | no binding
21 | DEARSDGA | no binding
22 | DEGGDAGD | no binding

Row | Variant | non-specific binding call
23 | YEGGGDVA | no binding
24 | YEGGGDVY | no binding
25 | YEGAASWF | no binding
26 | DEAGTAVA | no binding
27 | DEGGGSSA | no binding
28 | SEARSYAV | no binding
29 | YATTSFSF | no binding
30 | VEAGDDVV | no binding
31 | VEAGDDVY | no binding
32 | VEEAAAGV | no binding
33 | VEGGGDAA | no binding
34 | SEEGTDWY | no binding
35 | SEEGTDWD | no binding
36 | DEEASSWA | no binding
37 | SEARSSAS | no binding
38 | SEARSSAD | no binding
39 | AEEKGSGD | no binding
40 | VEAGDDWV | no binding
41 | FEARDYWD | binds
42 | VEEEGSAV | no binding
43 | VEEEGSAD | no binding
44 | SEGADAGD | no binding

Row | Variant | non-specific binding call
45 | FEERNSLD | binds
46 | YEGGADVV | no binding
47 | YEGGADVD | no binding
48 | YEGGADVA | no binding
49 | YEGGADVF | no binding
50 | VEAGDSLD | no binding
51 | YEERSDAF | no binding
52 | FEAESYGV | binds
53 | VEEEGSVS | no binding
54 | VEEEGSVV | no binding
55 | VEEEGSVD | no binding
56 | YEGGGSSA | no binding
57 | FEATAAGS | binds
58 | YEAGTAVA | no binding
59 | VEERDDWF | no binding
60 | VEEEGSWV | no binding
61 | VEERDAGD | no binding
62 | SEARSAWS | no binding
63 | SEARSAWA | no binding
64 | VEAGDDGA | no binding
65 | SEEEGDWV | no binding
66 | VEARGDGA | no binding

Row | Variant | non-specific binding call
67 | VEAGDDAV | no binding
68 | VEAGDDAA | no binding
69 | SEGADAVA chain 1 G106S | no binding
70 | SEARSDLY | no binding
71 | SEARSDLA | no binding
72 | VEGGGAAA | no binding
73 | VEGGGAAS | no binding
74 | AATTDSVD | no binding
75 | AEARAAGS chain 1 V37I | binds
76 | SEARSSLV | no binding
77 | SEARSSLA | no binding
78 | SEARSDWV | no binding
79 | SEARSDWD | no binding
80 | SEARSDWA | no binding
81 | SEARSDWF | no binding
82 | VEETSSLD | no binding
83 | FEAGDDGV | no binding
84 | SEEEGSGV | no binding
85 | VEEEGDAA | no binding
86 | VEEEGDAV | no binding
87 | VEAGDAGD | no binding
88 | VEAGDAGS | no binding

Row | Variant | non-specific binding call
89 | FATTDSVD | no binding
90 | SEARSSWV | no binding
91 | SEARSSWS | no binding
92 | VEGEDAAA | no binding
93 | VEGGGAWA | no binding
94 | AATTDSSS | no binding
95 | SEEEGDAV | no binding
96 | YEARNAGA | no binding
97 | SEEASAVY | no binding
98 | VEGGGSGV | no binding
99 | VEEASSWA | no binding
100 | VEERDAVA | no binding
101 | AEERDSVV | no binding
102 | SEARSDSV | no binding
103 | SEARSDSF | no binding
104 | VEARGDWV | no binding
105 | AEEEGSAA | no binding
106 | VEGAASWV | no binding
107 | VEGAASWF | no binding
108 | AEAGADVV | no binding
109 | SEEEGDVA | no binding
